Reference: US11111295 (CAFA THERAPEUTICS, dated 2021)
Positions count from the first letter of the chain named. In names and notes the source's numbering stands. Values belong to the binder of their own block, whether it stands above or below them.

Legend:
[1] = target: T1, human claudin 18A2 (CLD18A2) (human); experiment: flow cytometry, scFv_Fc on HEK293 cells stably transfected with human CLD18A2
T1 construct: also called CLD18.2; CLDN18A2
Description: Binding of anti-Claudin 18A2 scFv_Fc fusion antibody to HEK293 cells stably transfected with CLD18A2 was determined by flow cytometry. Experimental data was analyzed using GraphPad Prism and Guava easyCyte™ HT System instrument as described in Example 1 to obtain EC50 value.

[2] = target: T1, human claudin 18A2 (CLD18A2); experiment: flow cytometry, hybridoma supernatant on HEK293-CLD18A2 against HEK293-CLD18A1
Source text: (§1) Individual cells were screened for anti-CLD18A2 monoclonal antibody by flow cytometry, and HEK293 cells (HEK-CLD18A2) stably expressing human CLD18A2 were used for primary screening by flow cytometry using a Guava easyCyte™ HT System instrument. The binding of the antibody to human CLD18A1 and CLD18A2 transformants was then compared by flow cytometry. The instrument used was the Guava easyCyte™ HT System.
(§2) After multiple rounds of preparation and screening of hybridomas, the inventors found several antibodies with relatively ideal binding properties.

[3] = target: T2, human claudin 18A1 (CLD18A1) (human, UniProt P56856 1-261); experiment: flow cytometry, hybridoma supernatant on HEK293 cells stably transfected with human CLD18A1
T2 construct: also called CLD18.1; claudin 18 splice variant 1
T2 sequence: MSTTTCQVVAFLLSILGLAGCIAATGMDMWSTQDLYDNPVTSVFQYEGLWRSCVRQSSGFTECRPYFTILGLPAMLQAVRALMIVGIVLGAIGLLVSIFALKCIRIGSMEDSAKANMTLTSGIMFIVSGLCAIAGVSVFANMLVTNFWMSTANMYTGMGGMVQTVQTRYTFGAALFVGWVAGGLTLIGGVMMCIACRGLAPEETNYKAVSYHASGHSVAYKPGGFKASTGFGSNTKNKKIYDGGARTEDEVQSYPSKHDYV
Source text: as §1, §2

[4] = target: T1, human claudin 18A2 (CLD18A2); experiment: cell-based or functional assay

B1: 8E5 scFv_Fc fusion antibody (scFv of 8E5 fused to human IgG1 Fc portion) (Fc fusion)
scFv: DVQLQESGPDLVKPSQSLSLTCTVTGYSITSGYNWHWIRQFPGNKMEWMGYIHYTGSTNYNPSLRSRISITRDTSKNQFFLQLNSVTTDDTATYYCTRIYNGNSFPYWGQGTSVTVSSGGGGSGGGGSGGGGSDIVMTQSPSSLTVTPGEKVTMTCKSSQSLFNSGNQKNYLTWYQQRPGQPPKMLIYWASTRESGVPDRFTGSGSGTDFTLTISSVQAEDLAVFYCQNAYSFPYTFGGGTKLEIKR
notes: also called parent antibody 8E5; not shown: human IgG1 Fc portion
- EC50 [1]: 49.2 nM

B2: hu8E5 scFv fused to human IgG1 Fc portion (Fc fusion)
scFv: QVQLQESGPGLVKPSQTLSLTCTVSGGSISSGYNWHWIRQPPGKGLEWIGYIHYTGSTNYNPALRSRVTISVDTSKNQFSLKLSSVTAADTAVYYCARIYNGNSFPYWGQGTTVTVSSGGGGSGGGGSGGGGSDIVMTQSPDSLAVSLGERATINCKSSQSLFNSGNQKNYLTWYQQKPGQPPKLLIYWASTRESGVPDRFSGSGSGTDFTLTISSLQAEDVAVYYCQNAYSFPYTFGGGTKLEIKR
notes: also called hu8E5-S62A; not shown: human IgG1 Fc portion
- EC50 [1]: 107 nM

B3: hu8E5-2I scFv fused to human IgG1 Fc portion (Fc fusion)
scFv: B2 scFv with V12I, V93I
notes: also called mutant hu8E5-2I; not shown: human IgG1 Fc portion
- EC50 [1]: 9.22 nM
- fold increase of affinity against the parent antibody 8E5 [1]: 5 fold

B4: 2B1 scFv_Fc fusion antibody (scFv of 2B1 fused to human IgG1 Fc portion) (Fc fusion)
scFv: QVQLQQSGAELARPGASVKMSCKASGYTFTSYTMHWVKQRPGQGLEWIGYINPSSGYTNYNQKFKDKATLTADKSSSTAYMQLSSLTSEDSAVYYCARIYYGNSFAYWGQGTTVTVSSGGGGSGGGGSGGGGSDIVMTQSPSSLTVTAGEKVTMSCKSSQSLLNSGNQKNYLTWYQQKPGQPPKLLIYWASTRESGVPDRFTGSGSGTDFTLTISSVQAEDLAVYYCQNDYSYPLTFGAGTKLELKR
notes: also called murine anti-2B1 ScFv; not shown: human IgG1 Fc portion
- EC50 [1]: 3.56 nM

B5: 2B1-N52D scFv_Fc fusion antibody (Fc fusion)
scFv: B4 scFv with N52D
notes: not shown: human IgG1 Fc portion
- EC50 [1]: 6.11 nM

B6: 2B1-S54A scFv_Fc fusion antibody (Fc fusion)
scFv: B4 scFv with S54A
notes: as for B5
- EC50 [1]: 3.85 nM

B8: hu2B1-S54A scFv fused to human IgG1 Fc portion (Fc fusion)
scFv: QVQLVQSGAEVKKPGASVKVSCKASGYTFTSYTMHWVRQAPGQGLEWMGYINPASGYTNYNQKFKDRVTMTRDTSTSTAYMELSSLRSEDTAVYYCARIYYGNSFAYWGQGTLVTVSSGGGGSGGGGSGGGGSDIVMTQSPDSLAVSLGERATINCKSSQSLLNSGNQKNYLTWYQQKPGQPPKLLIYWASTRESGVPDRFSGSGSGTDFTLTISSLQAEDVAVYYCQNDYSYPLTFGGGTKVEIKR
notes: also called humanized hu2B1-S54A; not shown: human IgG1 Fc portion
- EC50 [1]: 18.6 nM

B12: humanized antibody hu2B1-S54A (full antibody) (antibody, human IgG1, kappa, V domains shown)
VH: QVQLVQSGAEVKKPGASVKVSCKASGYTFTSYTMHWVRQAPGQGLEWMGYINPASGYTNYNQKFKDRVTMTRDTSTSTAYMELSSLRSEDTAVYYCARIYYGNSFAYWGQGTLVTVSS
VL: DIVMTQSPDSLAVSLGERATINCKSSQSLLNSGNQKNYLTWYQQKPGQPPKLLIYWASTRESGVPDRFSGSGSGTDFTLTISSLQAEDVAVYYCQNDYSYPLTFGGGTKVEIKR
- ADCC effect (LDH release), antibody 20 µg/ml, effector-to-target ratio 50:1 [4]: 62.8%

Second part, the binder after the results:

- fold difference of average fluorescence intensity, CLD18A2 against CLD18A1 cells [2]: > 5 times
- binding result [3]: no binding
B7: murine monoclonal antibody 3E12 (hybridoma supernatant) (antibody, V domains shown)
VH: QVQLQQSGPELVKPGALVKISCKASGYTFTSYDINWVKQRPGQGLEWIGWIYPGDGSTKYNEKFKGKATLTADKSSSTAYMQLSSLTSENSAVYFCARGGYRYDEAMDYWGQGTTVTVSS
VL: QIVLTQSPAIMSASPGEKVTMTCSASSSISYMHWYQQKPGTSPKRWIYDTSKLASGVPARFSGSGSGTSYSLTISSMEAEDAATYYCHQRSSYPYTFGGGTKLEIKR
notes: Mouse hybridoma antibody tested as supernatant

- fold difference of average fluorescence intensity, CLD18A2 against CLD18A1 cells [2]: > 5 times
- binding result [3]: no binding
B9: murine monoclonal antibody 8E5 (hybridoma supernatant) (antibody, V domains shown)
VH: DVQLQESGPDLVKPSQSLSLTCTVTGYSITSGYNWHWIRQFPGNKMEWMGYIHYTGSTNYNPSLRSRISITRDTSKNQFFLQLNSVTTDDTATYYCTRIYNGNSFPYWGQGTSVTVSS
VL: DIVMTQSPSSLTVTPGEKVTMTCKSSQSLFNSGNQKNYLTWYQQRPGQPPKMLIYWASTRESGVPDRFTGSGSGTDFTLTISSVQAEDLAVFYCQNAYSFPYTFGGGTKLEIKR
notes: as for B7

- fold difference of average fluorescence intensity, CLD18A2 against CLD18A1 cells [2]: > 5 times
- binding result [3]: no binding
B10: murine monoclonal antibody 2B1 (hybridoma supernatant) (antibody, V domains shown)
VH: QVQLQQSGAELARPGASVKMSCKASGYTFTSYTMHWVKQRPGQGLEWIGYINPSSGYTNYNQKFKDKATLTADKSSSTAYMQLSSLTSEDSAVYYCARIYYGNSFAYWGQGTTVTVSS
VL: DIVMTQSPSSLTVTAGEKVTMSCKSSQSLLNSGNQKNYLTWYQQKPGQPPKLLIYWASTRESGVPDRFTGSGSGTDFTLTISSVQAEDLAVYYCQNDYSYPLTFGAGTKLELKR
notes: as for B7

- fold difference of average fluorescence intensity, CLD18A2 against CLD18A1 cells [2]: > 5 times
- binding result [3]: no binding
B11: murine monoclonal antibody 4A11 (hybridoma supernatant) (antibody, V domains shown)
VH: QIQLVQSGPELKKPGETVKISCKASGYTFTNYGMNWVKQAPGKGLKWMGWINTNTGEPTYAEEFKGRFAFSLETSASTAYLQINNLKNEDTATYFCARFSYGNSFAYWGQGTTVTVSS
VL: B10 VL with T12S, T14S, T40A, W56G, Y98H
notes: Mouse hybridoma antibody tested as supernatant; the latter is used

- ADCC effect (LDH release), antibody 20 µg/ml, effector-to-target ratio 50:1 [4]: 72.9%
B13: humanized antibody hu8E5-2I (full antibody) (antibody, human IgG1, kappa, V domains shown)
VH: QVQLQESGPGLIKPSQTLSLTCTVSGGSISSGYNWHWIRQPPGKGLEWIGYIHYTGSTNYNPALRSRVTISVDTSKNQFSLKLSSVTAADTAIYYCARIYNGNSFPYWGQGTTVTVSS
VL: B12 VL with L30F, D97A, Y100F, L102Y, V110L
